From publication PMC7294595 (2020)
[ ]: non-standard residue; d: D form. CPP12 = cyclic cell-penetrating peptide fused at the N-terminus; pY = N[C@@H](Cc1ccc(OP(=O)(O)O)cc1)C(=O)O; βAla = NCCC(=O)O

Experiments:
CPP12-pTyr = target: T1, CPP12-pTyr (Homo sapiens, not fully specified); assay: competition fluorescence polarization
T1 chain: {CPP12-βAla-βAla}-G[pY]LPQTV-NH2

[1] = target: T2, ac-pTyr (gp130-derived phosphopeptide) (Homo sapiens); assay: competition fluorescence polarization
T2 chain: Ac-G[pY]LPQTV-NH2

IC50 (CPP12-pTyr): 410 nM
IC50 [1]: 610 nM
B1: STAT3 127-711 (protein)
chain: GQANHPTAAVVTEKQQMLEQHLQDVRKRVQDLEQKMKVVENLQDDFDFNYKTLKSQGDMQDLNGNNQSVTRQKMQQLEQMLTALDQMRRSIVSELAGLLSAMEYVQKTLTDEELADWKRRQQIACIGGPPNICLDRLENWITSLAESQLQTRQQIKKLEELQQKVSYKGDPIVQHRPMLEERIVELFRNLMKSAFVVERQPCMPMHPDRPLVIKTGVQFTTKVRLLVKFPELNYQLKIKVCIDKDSGDVAALRGSRKFNILGTNTKVMNMEESNNGSLSAEFKHLTLREQRCGNGGRANCDASLIVTEELHLITFETEVYHQGLKIDLETHSLPVVVISNICQMPNAWASILWYNMLTNNPKNVNFFTKPPIGTWDQVAEVLSWQFSSTTKRGLSIEQLTTLAEKLLGPGVNYSGCQITWAKFCKENMAGKGFSFWVWLDNIIDLVKKYILALWNEGYIMGFISKERERAILSTKPPGTFLLRFSESSKEGGVTFTWVEKDISGKTQIQSVEPYTKQQLNNMSFAEIIMGYKIMDATNILVSPLVYLYPDIPKEEAFGKYCRPESQEHPEADPGSAAPYLKTKFI
